Experimental data reported in US20250237628A1 (JUNO THERAPEUTICS, published 2025).

Columns and labels:
[1] = molecular target: T1, Strep-Tactin M2 streptavidin mutein covalently immobilised on chromatography resin (Streptomyces avidinii, UniProt P22629 38-163, covalently coupled to the resin (CNBr-activated Sephadex G-50, agarose, or epoxy-activated polystyrene)); test: loading of Fab on Strep-Tactin Sephadex G50 resin, 20 min at 4 °C
T1 construct: also called immobilized Strep-Tactin; STREP-TACTIN M2 multimer reagent

[2] = molecular target: T2, CD4 on the surface of human T cells (human, UniProt P01730 26-458); test: affinity column cell selection from apheresis, surface marker MFI of the collected cells by flow cytometry, 24 h with or without anti-CD3/anti-CD28 oligomeric reagent
T2 construct: whole, on cells; also called selection marker CD4

B1: anti-CD4 Fab fragment m13B8.2 with Twin Strep-Tag (Fab, V domains shown)
VH: QVQLKQSGPGLVQPSQSLSITCTVSGFSLTTFGVHWVRQSPGKGLEWLGVIWASGITDYNVPFMSRLSITKDNSKSQVFFKLNSLQPDDTAIYYCAKNDPGTGFAYWGQGTLVTVSA
VL: DIQMTQSPASLSASVGETVTFTCRASEMIYSYLAWYQQKQGKSPQLLVHDAKTLAEGVPSRFSGGGSGTQFSLKINTLQPEDFGTYYCQAHYGNPPTFGGGTKLEIKR
Q: Does B1 bind [1]?
A: Result: binds

Q: Does B1 bind [2]?
A: Result: binds
